This note sets out measurements from patent US20230058212A1 (UNIVERSIT DE BRETAGNE OCCIDENTALE UBO, published 2023).

The target of test [1] is T1, Peptide 1B (biotinylated in the ELISA of Figure 3 A (site not given)).
T1 construct: also called STIM1 peptide 1B; aa 169 to aa 197
As to the kind of experiment: ELISA, DO492 - DO Blanc. How it is done:
(§1) FIG. 3 illustrated the validation by Elisa of the monoclonal anti-STIM1 antibody clone B-M4. […] Anti-STIM1 mAb clone B-M4 mAb (10 μg/ml) was diluted to 1/10 and antigens STIM1 biotinylated peptides used at concentrations of 50 ng/well for peptides 1A and 1B and 100 ng/well for peptide 2A and 10 ng/well for peptide 2B. Panel B: Specificity of the B-M4 antibody for STIM1 is confirmed by ELISA using the peptide 2B and a recombinant STIM1 EF/SAM peptide (1 μg/mL). B-M4 mAb used at 100 μg/mL diluted to 1/10. Panel C: Specificity for the B-M4 antibody for the peptide 2B over the other peptides (1A, 1B, 2A, 2B, C2, C3, C4, C5, C6, C7 and C8). Peptides are used at a concentration of 1 μg/mL. Histograms represents mean optical density measured using an Elisa approach.
For orientation: An ELISA detects its analyte on a solid surface through an enzyme-linked reagent.

Test [2] has as its target T2, Peptide 2A (biotinylated in the ELISA of Figure 3 A (site not given)).
T2 construct: also called STIM1 peptide 2A; aa 62 to aa 95
As to the kind of experiment: ELISA, DO492 - DO Blanc. How it is done: as §1

Test [3] deals with T3, Peptide 1A (biotinylated in the ELISA of Figure 3 A (site not given)).
T3 construct: also called STIM1 peptide 1A; aa 128 to aa 168
T3 sequence (peptide, as listed by the source): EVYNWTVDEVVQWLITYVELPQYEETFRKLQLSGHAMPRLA
The experiment in a line: ELISA, DO492 - DO Blanc and DO492 - DO630. As for the experimental part:
as §1

The target of test [4] is T4, STIM1 peptide 2B (amino acids 97-127 of STIM1) (human, biotinylated in the ELISA of FIG. 3 panel A (position not given)).
T4 construct: One of the two immunization peptides
T4 sequence (peptide, as listed by the source): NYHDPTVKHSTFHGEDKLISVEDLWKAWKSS
As to the kind of experiment: ELISA on Peptide 2B (aa 97-127), B-M4 titrated. How it is done: as §1

For test [5], the target named is T5, recombinant STIM1 EF/SAM peptide (STIM1 aa 58-201) (human, UniProt Q13586 58-201).
T5 construct: also called soluble recombinant protein corresponding to the STIM1 EF-Hand domain
T5 sequence (Q13586 58-201): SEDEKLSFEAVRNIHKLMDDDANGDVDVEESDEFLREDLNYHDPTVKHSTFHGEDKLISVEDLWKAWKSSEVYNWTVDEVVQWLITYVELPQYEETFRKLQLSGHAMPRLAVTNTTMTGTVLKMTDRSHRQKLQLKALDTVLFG
As to the kind of experiment: Octet (BLI), 1 to 1 fitting model, EF-SAM peptide at 300, 200 and 133 nM. How it is done:
(§2) Affinity constants (Kon, Kdis) were calculated.

Test [6] concerns the target T6, mouse STIM1 at the plasma membrane of mouse spleen B and T cells (mouse, UniProt P70302 23-685).
T6 construct: whole, on cells; also called mSTIM1 (mice B and T cells)
As to the kind of experiment: direct flow cytometry with PE coupled B-M4 on spleen B and T cells, n=4. Background: Flow cytometry measures light scatter and fluorescence of single cells or particles in a stream.

Test [7] concerns the target T5, recombinant STIM1 EF/SAM peptide (STIM1 …). The experiment in a line: ELISA on recombinant STIM1 EF-SAM peptide (aa 58-201) at 1 µg/mL, B-M4 titrated. As for the experimental part:
as §1

Test [8] has the same target. As to the kind of experiment: Octet, EF-SAM peptide at 300, 200 and 133 nM, 1 to 1 fitting model; same value in all three rows [table]. How it is done:
(§3) FIG. 9 represents the determination of the anti-STIM1 mAb clone B-M4 affinity. […] High affinity interaction is characterized by a low K, a fast recognizing (high kon) and a stable formation of complexes (low kdis). kdis: dissociation rate constant. kon: complex formation rate.
as §2
For orientation: In BLI a coated tip is dipped into the sample, and binding shifts an interference pattern.

For test [9] the target is unchanged. The experiment in a line: Octet, EF-SAM peptide at 300, 200 and 133 nM, 1 to 1 fitting model; column kdis, same value in all three rows [table]. As for the experimental part:
as §3, §2

T1 sequence (peptide, as listed by the source): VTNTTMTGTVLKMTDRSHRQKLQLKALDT
T6 sequence (P70302 23-685): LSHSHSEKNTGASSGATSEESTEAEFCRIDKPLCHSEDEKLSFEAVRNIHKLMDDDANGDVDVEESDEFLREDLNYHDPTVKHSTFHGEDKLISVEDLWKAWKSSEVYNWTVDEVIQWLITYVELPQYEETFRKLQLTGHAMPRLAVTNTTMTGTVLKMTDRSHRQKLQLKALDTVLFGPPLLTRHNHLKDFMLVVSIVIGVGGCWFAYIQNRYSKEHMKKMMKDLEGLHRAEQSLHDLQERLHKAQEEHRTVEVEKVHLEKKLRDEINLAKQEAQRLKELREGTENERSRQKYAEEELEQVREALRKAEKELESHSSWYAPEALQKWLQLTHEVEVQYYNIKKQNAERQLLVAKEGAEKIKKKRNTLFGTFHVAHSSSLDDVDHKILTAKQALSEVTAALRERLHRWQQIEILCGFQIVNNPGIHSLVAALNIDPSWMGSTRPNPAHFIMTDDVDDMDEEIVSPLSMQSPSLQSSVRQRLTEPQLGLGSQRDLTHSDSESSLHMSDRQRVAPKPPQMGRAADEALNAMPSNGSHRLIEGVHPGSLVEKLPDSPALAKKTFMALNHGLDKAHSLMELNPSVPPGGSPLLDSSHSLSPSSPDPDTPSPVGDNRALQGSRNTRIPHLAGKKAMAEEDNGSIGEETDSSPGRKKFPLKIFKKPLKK
T2 sequence (peptide, as listed by the source): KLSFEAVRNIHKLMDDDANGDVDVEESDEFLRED

B1: monoclonal anti-STIM1 antibody clone B-M4 (antibody, V domains shown)
VH: EVKLVESGGGLVQPGGSLKLSCAASGFTFSRYSMSWVRQTPEKRLEWVAHIRNGGGSTYYPDTVKGRFTISRDNAKNTLYLQMSSLKSEDTAMYYCARPPYGNYEGYFDVWGAGTTVTVSS
VL: DIVMSQSPSSLAVSAGEKVTMSCKSSQSLLNSRTRKNYLAWYQQKPGQSPKLLIYWASTRESGVPDRFTGSGSGTDFTLTISSVQAEDLAVYYCKQSYNLYTFGGGTKLEIK
notes: In the direct flow cytometry assays it was coupled to phycoerythrin (PE); also called B-M4 mAb; anti-STIM1 mAb clone B-M4
With B1, the binding result in [1] was “no binding”; in [2] it was “no binding”; in test [3] it was “no binding”; in [6], “binds”. In addition, the EC50 (read off the curve) (in general, the concentration at which the effect is half-maximal) is around 0.02 µg/mL in [4] and around 0.07 µg/mL in test [7]. Further, the dissociation constant (Kd) (as a rule, the concentration at which binding is half-saturated) in [5] is 37 nM. Moreover, the kon (in general, the rate constant with which the complex forms) in test [8] came to 9960 M⁻¹ s⁻¹. Besides, the koff (commonly the first-order rate constant of dissociation) in test [9] is 0.000369 s⁻¹.
